This note sets out measurements from patent US20250009780A1, “AGENTS ENCODING CLDN6 AND CD3 BINDING ELEMENTS FOR TREATING CLDN6-POSITIVE CANCERS” (BIONTECH SE, priority 2021, published 2025).

The target in series [1] is T1, CLDN3 (Homo sapiens, UniProt O15551).
T1 construct: expressed in transfected cells
T1 sequence (O15551 1-220): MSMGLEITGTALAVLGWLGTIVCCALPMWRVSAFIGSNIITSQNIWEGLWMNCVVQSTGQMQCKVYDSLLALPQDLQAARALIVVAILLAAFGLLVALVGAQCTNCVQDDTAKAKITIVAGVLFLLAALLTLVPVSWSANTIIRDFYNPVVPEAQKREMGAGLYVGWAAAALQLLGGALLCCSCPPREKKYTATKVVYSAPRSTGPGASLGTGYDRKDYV
Kind of series: Flow cytometric binding assay, HEK-293T-17 CLDN3 transductants. To be noted: 10 μg/mL RiboMab02.1 in HEK-293T-17 supernatant. From the text: (§1) Cells were first gated for singlets followed by gating for viable lymphocytes (PBMCs) or viable HEK-293T-17 cells. […] Cynomolgus monkey or human PBMCs and HEK-293T-17 transductants stably expressing luciferase (HEK-293T-17_mock), CLDN3, 4, 6 or 9 served as target cells as indicated. The dotted vertical line marks the peak position of unstained populations.
(Flow cytometry measures light scatter and fluorescence of single cells or particles in a stream.)

Series [2] addresses T2, simian CD3 (Macaca fascicularis, UniProt Q95LI5).
T2 construct: endogenous in cells; host or cells: cynomolgus monkey PBMCs (T cells)
Kind of series: Flow cytometric binding assay, cynomolgus monkey PBMCs. To be noted: 10 μg/mL.
Source text: as §1

In series [3] the test system is human PBMCs (T cells). Kind of series: T-cell activation assay (CD69/CD25, flow cytometry). In kind it is cell-based. On the procedure: Human PBMCs from three healthy donors (effector cells) were cultured in the presence and absence of CLDN6-positive PA-1 cells (target cells) at a 10:1 effector-to-target-cell ratio. RiboMab02.1-containing mouse serum was serially-diluted (10-fold, 10-point; range: 4.0×10^−6 to 4,000 ng/mL) prior to use in the assay. After 48 h of co-incubation, cells were stained with anti-CD5, anti-CD69 and anti-CD25 antibodies for flow cytometric analysis of T cells. Shown here is the total T-cell activation normalized to samples incubated with mock serum from Luc_RNA-LNP-treated mice. Percentages of activated T cells are shown for each individual donor (left) and for all three donors as mean (right). Filled symbols represent values with and black, open symbols without target cells.
RiboMab02.1-containing as well as mock serum samples were obtained from mice administered either with BNT142 or luciferase encoding RNA-LNP (Luc_RNA-LNP; mock). Human PBMCs from three healthy donors were used as effector cells. Serum samples were serially-diluted (10-fold, 10-point), starting at 4,000 ng/mL, and added to PBMCs cultured alone or together with CLDN6-positive PA-1 target cells at an effector-to-target-cell ratio of 10:1. After 48 h of incubation, T cells were analyzed by flow cytometry for surface expression of the early and late activation markers CD69 and CD25, respectively. […] OKT3 positive control led to >50% T-cell activation with and without target cells (data not shown). Upregulation of CD69 on T cells was higher than that of CD25; CD25-positive cells were almost exclusively CD69 double-positive, pointing to an early activation state (data not shown).

Series [4] in a line: Anti-drug antibody (ADA) sandwich immunoassay in mouse serum. In kind it is in vivo, Balb/cJRj mice. To be noted: 30 μg RNA-LNP IV single dose; compared to RiboMab_712/711. On the procedure: Four female Balb/cJRj mice received an IV single dose of 30 μg RNA-LNP per mouse (˜1.4 mg/kg). Serum was sampled pre- and 6, 24, 48, 96, 168, 216, 265 and 528 hours (0.25 to 22 days) post-administration.
Anti-RiboMab02.1 and anti-RiboMab_712/711 drug antibodies (ADAs) in mouse sera were determined using a Gyros xPand™ XPA1025 ELISA device from Gyros Protein Technologies AB. Sandwich immunoassay was processed on a Gyrolab Bioaffy 200 CD.
Anti-RiboMab ADAs were captured using 100 μg/mL biotinylated drug antibody. Serum ADA levels were detected with 25 nM Alexa Fluor 647-conjugated AffiniPure goat anti-mouse IgG, Fc fragment specific antibody. Data were generated using the 200-3W-002-A method and the results were analyzed using Gyrolab Evaluator software.
The positive ADA response was determined according to the floating cut-point. Therefore, the cut-point was calculated using the response of the negative sera (pre-bleeds) and the formula, normalization factor (NF)+mean negative controls (NC).
NF=X*SD of the negative samples; X=1.645; SD=standard deviation of the negative sera (pre-bleeds); NC=3 negative controls (pooled negative sera).

For series [5] the following is noted: cynomolgus monkey, in vivo.
The target in series [6] is T3, CLDN9 (Homo sapiens, UniProt O95484).
T3 sequence (O95484 1-217): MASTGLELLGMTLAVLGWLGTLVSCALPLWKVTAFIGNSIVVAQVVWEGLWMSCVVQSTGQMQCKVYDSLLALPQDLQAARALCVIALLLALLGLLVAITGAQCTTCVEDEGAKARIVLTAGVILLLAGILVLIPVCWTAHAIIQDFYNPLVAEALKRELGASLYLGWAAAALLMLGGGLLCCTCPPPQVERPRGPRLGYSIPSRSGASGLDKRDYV
In words: Flow cytometric binding assay, HEK-293T-17 CLDN9 transductants. Further details: expressed in transfected cells. To be noted: 10 μg/mL RiboMab02.1 in HEK-293T-17 supernatant.
Source text: as §1

T2 sequence (Q95LI5 22-198): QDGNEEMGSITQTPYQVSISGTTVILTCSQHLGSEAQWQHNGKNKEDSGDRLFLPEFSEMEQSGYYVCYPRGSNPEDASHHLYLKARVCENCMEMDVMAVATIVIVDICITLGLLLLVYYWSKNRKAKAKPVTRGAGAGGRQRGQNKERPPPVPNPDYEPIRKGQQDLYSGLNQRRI
T2 sequence (Q95LI8 22-171 partner): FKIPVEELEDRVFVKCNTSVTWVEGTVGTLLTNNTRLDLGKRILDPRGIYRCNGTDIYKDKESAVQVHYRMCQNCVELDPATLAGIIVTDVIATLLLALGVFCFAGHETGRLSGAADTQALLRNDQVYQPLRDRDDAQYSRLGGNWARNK
T2 sequence (Q95LI7 23-181 partner): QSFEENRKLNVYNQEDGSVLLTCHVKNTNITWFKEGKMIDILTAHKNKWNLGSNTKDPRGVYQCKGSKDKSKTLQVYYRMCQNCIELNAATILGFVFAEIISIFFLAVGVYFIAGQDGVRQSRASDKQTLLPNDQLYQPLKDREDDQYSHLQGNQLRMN

Regarding “RiboMab02.1: Fab-(scFv)2-based bispecific antibody (tribody) against CLDN6 and CD3 encoded by BNT142; SEQ ID NOs: 4 and 6; C53S”, in series [1], the “binding to CLDN3” value is recorded as “not to CLDN3, CLDN4 or CLDN9”. Besides, the “binding to simian CD3” value in series [2] is “not simian CD3 was recognized”. In addition, the “off-target T-cell activation” value in series [3] (PBMCs without target cells, up to 40 ng/mL RiboMab02.1, 48 h) is on record as “No off-target T-cell activation”. Also, the “concentration above EC50 up to which T-cell activation is target-dependent” value in series [3] (onset of unspecific T-cell activation relative to EC50) is > 1,500 fold. In addition, the “immunogenic potential (ADA response)” value in series [4] is recorded as “lower immunogenic potential”. In series [5], the “anticipated full clearance from the human body (five half-lives)” value was in the range of 135 to 185 h. In addition, in series [6], the “binding to CLDN9” value is recorded as “not to CLDN3, CLDN4 or CLDN9”.
